Source: the supplement of paper PMC5998384

Key:
HeLa Kyoto [1] = assay: thermal stability score vs G1/S (z-score of summed log2 fold changes over temperatures); higher = more thermally stable than in G1/S
HeLa Kyoto [2] = assay: melting temperature (median over replicates), in situ; higher = more thermally stable
[3] = cell cycle stage: early G1 (4.5 h after nocodazole release)
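Throughout, for melting temperature (median over replicates), in situ: HeLa Kyoto cells synchronized by double thymidine or nocodazole block, proteins quantified by TMT10plex mass spectrometry, three independent biological replicates.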
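Throughout, for thermal stability score vs G1/S (z-score of summed log2 fold changes over temperatures): synchronized HeLa Kyoto cells, proteins quantified by TMT10plex mass spectrometry, three biological replicates, mitosis taken 0.5 h after nocodazole release, G1/S directly after double thymidine block.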

| Sequence | thermal stability score (HeLa Kyoto [1]; [3]) | thermal stability score (HeLa Kyoto [1]; cell cycle stage: mitosis) | melting temperature (HeLa Kyoto [2]; cell cycle stage: G1/S) | melting temperature (HeLa Kyoto [2]; cell cycle stage: mitosis) |
| --- | --- | --- | --- | --- |
| MTQNKLKLCSKANVYTEVPDGGWGWAVAVSFFFVEVFTYGIIKTFGVFFNDLMDSFNESNSRISWIISICVFVLTFSAPLATVLSNRFGHRLVVMLGGLLVSTGMVAASFSQEVSHMYVAIGIISGLGYCFSFLPTVTILSQYFGKRRSIVTAVASTGECFAVFAFAPAIMALKERIGWRYSLLFVGLLQLNIVIFGALLRPIFIRGPASPKIVIQENRKEAQYMLENEKTRTSIDSIDSGVELTTSPKNVPTHTNLELEPKADMQQVLVKTSPRPSEKKAPLLDFSILKEKSFICYALFGLFATLGFFAPSLYIIPLGISLGIDQDRAAFLLSTMAIAEVFGRIGAGFVLNREPIRKIYIELICVILLTVSLFAFTFATEFWGLMSCSIFFGFMVGTIGGTHIPLLAEDDVVGIEKMSSAAGVYIFIQSIAGLAGPPLAGLLVDQSKIYSRAFYSCAAGMALAAVCLALVRPCKMGLCQHHHSGETKVVSHRGKTLQDIPEDFLEMDLAKNEHRVHVQMEPV [SLC16A6] | -2.68 | -4.18 | 54.8 °C | 54.4 °C |
| MEFDCEGLRRLLGKYKFRDLTVEELRNVNVFFPHFKYSMDTYVFKDSSQKDLLNFTGTIPVMYQGNTYNIPIRFWILDSHPFAPPICFLKPTANMGILVGKHVDAQGRIYLPYLQNWSHPKSVIVGLIKEMIAKFQEELPMYSLSSSDEARQVDLLAYIAKITEGVSDTNSKSWANHENKTVNKITVVGGGELGIACTLAISAKGIADRLVLLDLSEGTKGATMDLEIFNLPNVEISKDLSASAHSKVVIFTVNSLGSSQSYLDVVQSNVDMFRALVPALGHYSQHSVLLVASQPVEIMTYVTWKLSTFPANRVIGIGCNLDSQRLQYIITNVLKAQTSGKEVWVIGEQGEDKVLTWSGQEEVVSHTSQVQLSNRAMELLRVKGQRSWSVGLSVADMVDSIVNNKKKVHSVSALAKGYYDINSEVFLSLPCILGTNGVSEVIKTTLKEDTVTEKLQSSASSIHSLQQQLKL [UEVLD] | -0.401 | 0.298 | 49.9 °C | 50.1 °C |
| MDLAANEISIYDKLSETVDLVRQTGHQCGMSEKAIEKFIRQLLEKNEPQRPPPQYPLLIVVYKVLATLGLILLTAYFVIQPFSPLAPEPVLSGAHTWRSLIHHIRLMSLPIAKKYMSENKGVPLHGGDEDRPFPDFDPWWTNDCEQNESEPIPANCTGCAQKHLKVMLLEDAPRKFERLHPLVIKTGKPLLEEEIQHFLCQYPEATEGFSEGFFAKWWRCFPERWFPFPYPWRRPLNRSQMLRELFPVFTHLPFPKDASLNKCSFLHPEPVVGSKMHKMPDLFIIGSGEAMLQLIPPFQCRRHCQSVAMPIEPGDIGYVDTTHWKVYVIARGVQPLVICDGTAFSEL [C6ORF89] | 0.0285 | -2.22 | 53.2 °C |  |
| MAIAQLATEYVFSDFLLKEPTEPKFKGLRLELAVDKMVTCIAVGLPLLLISLAFAQEISIGTQISCFSPSSFSWRQAAFVDSYCWAAVQQKNSLQSESGNLPLWLHKFFPYILLLFAILLYLPPLFWRFAAAPHICSDLKFIMEELDKVYNRAIKAAKSARDLDMRDGACSVPGVTENLGQSLWEVSESHFKYPIVEQYLKTKKNSNNLIIKYISCRLLTLIIILLACIYLGYYFSLSSLSDEFVCSIKSGILRNDSTVPDQFQCKLIAVGIFQLLSVINLVVYVLLAPVVVYTLFVPFRQKTDVLKVYEILPTFDVLHFKSEGYNDLSLYNLFLEENISEVKSYKCLKVLENIKSSGQGIDPMLLLTNLGMIKMDVVDGKTPMSAEMREEQGNQTAELQGMNIDSETKANNGEKNARQRLLDSSC [PANX1] | -1.3 | -1.3 | 57.4 °C | 55.7 °C |
| MSSVQSQQEQLSQSDPSPSPNSCSSFELIDMDAGSLYEPVSPHWFYCKIIDSKETWIPFNSEDSQQLEEAYSSGKGCNGRVVPTDGGRYDVHLGERMRYAVYWDELASEVRRCTWFYKGDKDNKYVPYSESFSQVLEETYMLAVTLDEWKKKLESPNREIIILHNPKLMVHYQPVAGSDDWGSTPTEQGRPRTVKRGVENISVDIHCGEPLQIDHLVFVVHGIGPACDLRFRSIVQCVNDFRSVSLNLLQTHFKKAQENQQIGRVEFLPVNWHSPLHSTGVDVDLQRITLPSINRLRHFTNDTILDVFFYNSPTYCQTIVDTVASEMNRIYTLFLQRNPDFKGGVSIAGHSLGSLILFDILTNQKDSLGDIDSEKDSLNIVMDQGDTPTLEEDLKKLQLSEFFDIFEKEKVDKEALALCTDRDLQEIGIPLGPRKKILNYFSTRKNSMGIKRPAPQPASGANIPKESEFCSSSNTRNGDYLDVGIGQVSVKYPRLIYKPEIFFAFGSPIGMFLTVRGLKRIDPNYRFPTCKGFFNIYHPFDPVAYRIEPMVVPGVEFEPMLIPHHKGRKRMHLELREGLTRMSMDLKNNLLGSLRMAWKSFTRAPYPALQASETPEETEAEPESTSEKPSDVNTEETSVAVKEEVLPINVGMLNGGQRIDYVLQEKPIESFNEYLFALQSHLCYWESEDTVLLVLKEIYQTQGIFLDQPLQ [DDHD2] | 1.25 | 0.742 | 55.4 °C | 54.7 °C |
| MRSPVRDLARNDGEESTDRTPLLPGAPRAEAAPVCCSARYNLAILAFFGFFIVYALRVNLSVALVDMVDSNTTLEDNRTSKACPEHSAPIKVHHNQTGKKYQWDAETQGWILGSFFYGYIITQIPGGYVASKIGGKMLLGFGILGTAVLTLFTPIAADLGVGPLIVLRALEGLGEGVTFPAMHAMWSSWAPPLERSKLLSISYAGAQLGTVISLPLSGIICYYMNWTYVFYFFGTIGIFWFLLWIWLVSDTPQKHKRISHYEKEYILSSLRNQLSSQKSVPWVPILKSLPLWAIVVAHFSYNWTFYTLLTLLPTYMKEILRFNVQENGFLSSLPYLGSWLCMILSGQAADNLRAKWNFSTLCVRRIFSLIGMIGPAVFLVAAGFIGCDYSLAVAFLTISTTLGGFCSSGFSINHLDIAPSYAGILLGITNTFATIPGMVGPVIAKSLTPDNTVGEWQTVFYIAAAINVFGAIFFTLFAKGEVQNWALNDHHGHRH [SLC17A5] | -3.39 | -4.02 | 57.3 °C | 57.6 °C |
| MEAAVAPGRDAPAPAASQPSGCGKHNSPERKVYMDYNATTPLEPEVIQAMTKAMWEAWGNPSSPYSAGRKAKDIINAARESLAKMIGGKPQDIIFTSGGTESNNLVIHSVVKHFHANQTSKGHTGGHHSPVKGAKPHFITSSVEHDSIRLPLEHLVEEQVAAVTFVPVSKVSGQAEVDDILAAVRPTTRLVTIMLANNETGIVMPVPEISQRIKALNQERVAAGLPPILVHTDAAQALGKQRVDVEDLGVDFLTIVGHKFYGPRIGALYIRGLGEFTPLYPMLFGGGQERNFRPGTENTPMIAGLGKAAELVTQNCEAYEAHMRDVRDYLEERLEAEFGQKRIHLNSQFPGTQRLPNTCNFSIRGPRLQGHVVLAQCRVLMASVGAACHSDHGDQPSPVLLSYGVPFDVARNALRLSVGRSTTRAEVDLVVQDLKQAVAQLEDQA [SCLY] | -0.479 | -0.778 | 55.4 °C | 51.5 °C |
| MASASSGPSSSVGFSSFDPAVPSCTLSSAASGIKRPMASEVLEARQDSYISLVPYASGMPIKKIGHRSVDSSGETTYKKTTSSALKGAIQLGITHTVGSLSTKPERDVLMQDFYVVESIFFPSEGSNLTPAHHYNDFRFKTYAPVAFRYFRELFGIRPDDYLYSLCSEPLIELCSSGASGSLFYVSSDDEFIIKTVQHKEAEFLQKLLPGYYMNLNQNPRTLLPKFYGLYCVQAGGKNIRIVVMNNLLPRSVKMHIKYDLKGSTYKRRASQKEREKPLPTFKDLDFLQDIPDGLFLDADMYNALCKTLQRDCLVLQSFKIMDYSLLMSIHNIDHAQREPLSSETQYSVDTRRPAPQKALYSTAMESIQGEARRGGTMETDDHMGGIPARNSKGERLLLYIGIIDILQSYRFVKKLEHSWKALVHDGDTVSVHRPGFYAERFQRFMCNTVFKKIPLKPSPSKKFRSGSSFSRRAGSSGNSCITYQPSVSGEHKAQVTTKAEVEPGVHLGRPDVLPQTPPLEEISEGSPIPDPSFSPLVGETLQMLTTSTTLEKLEVAESEFTH [PIP5K1A] | 1.38 | 1.13 | 51.4 °C | 51.5 °C |
